Data reported in patent publication US20240092919A1.
Numbering of substitutions follows the chain as printed.

B1: T017000677 (bispecific antibody)
chain: DVQLVESGGGLVQAGGPLRLSCAASGRTFSSYVMGWFRQAPGKEREFVAAIYWSNGKTQYTDSVKGRFTISGDNAKNTVYLQMNSLNPEDTAVYYCVADKDETGFRTLPIAYDYWGQGTLVTVSSGGGGSGGGGSGGGGSGGGGSGGGGSGGGGSGGGGSEVQLVESGGGVVQPGGSLRLSCVASGYVHKINFYGWYRQAPGKEREKVAHISIGDQTDYADSAKGRFTISRDESKNTVYLQMNSLRPEDTALYYCRALSRIWPYDYWGQGTLVTVSSGGGGSGGGGSGGGGSGGGGSGGGGSGGGGSGGGGSEVQLVESGGGLVQAGGSLRLSCAASGITSKINDMGWYRQTPGNYREWVASITATGTTNYRDSVKGRFTISRDNAKSTVYLQMNSLKPEDTTVYYCNTFPPISNFWGQGTLVTVSSA
B2: T017000671 (bispecific antibody)
chain: DVQLVESGGGLVQAGGSLRLSCAASGITSKINDMGWYRQTPGNYREWVASITATGTTNYRDSVKGRFTISRDNAKSTVYLQMNSLKPEDTTVYYCNTFPPISNFWGQGTLVTVSSGGGGSGGGGSGGGGSGGGGSGGGGSGGGGSGGGGSEVQLVESGGGVVQPGGSLRLSCVASGYVHKINFYGWYRQAPGKEREKVAHISIGDQTDYADSAKGRFTISRDESKNTVYLQMNSLRPEDTALYYCRALSRIWPYDYWGQGTLVTVSSGGGGSGGGGSGGGGSGGGGSGGGGSGGGGSGGGGSEVQLVESGGGLVQAGGPLRLSCAASGRTFSSYVMGWFRQAPGKEREFVAAIYWSNGKTQYTDSVKGRFTISGDNAKNTVYLQMNSLNPEDTAVYYCVADKDETGFRTLPIAYDYWGQGTLVTVSSA
B3: T017000139 (bispecific antibody)
chain: DVQLVESGGGLVQPGGSLRLSCVASGDVHKINFLGWYRQAPGKEREKVAHISIGDQTDYADSAKGRFTISRDESKNMVYLQMNSLKPEDTAVYFCRAFSRIYPYDYWGQGTLVTVSSGGGGSGGGGSGGGGSGGGGSGGGGSGGGGSGGGGSEVQLVESGGGLVQAGGPLRLSCAASGRTFSSYVMGWFRQAPGKEREFVAAIYWSNGKTQYTDSVKGRFTISGDNAKNTVYLQMNSLNPEDTAVYYCVADKDETGFRTLPIAYDYWGQGTLVTVSSGGGGSGGGGSGGGGSGGGGSGGGGSGGGGSGGGGSEVQLVESGGGLVQAGGSLRLSCAASGITSKINDMGWYRQTPGNYREWVASITATGTTNYRDSVKGRFTISRDNAKSTVYLQMNSLKPEDTTVYYCNTFPPISNFWGQGTLVTVSSA
B4: T017000670 (bispecific antibody)
chain: B3 chain with L11V, D27Y, L34Y, M77T, K86R, V92L, F94Y, F98L, Y102W
B5: T017000675 (bispecific antibody)
chain: DVQLVESGGGLVQAGGPLRLSCAASGRTFSSYVMGWFRQAPGKEREFVAAIYWSNGKTQYTDSVKGRFTISGDNAKNTVYLQMNSLNPEDTAVYYCVADKDETGFRTLPIAYDYWGQGTLVTVSSGGGGSGGGGSGGGGSGGGGSGGGGSGGGGSGGGGSEVQLVESGGGLVQAGGSLRLSCAASGITSKINDMGWYRQTPGNYREWVASITATGTTNYRDSVKGRFTISRDNAKSTVYLQMNSLKPEDTTVYYCNTFPPISNFWGQGTLVTVSSGGGGSGGGGSGGGGSGGGGSGGGGSGGGGSGGGGSEVQLVESGGGVVQPGGSLRLSCVASGYVHKINFYGWYRQAPGKEREKVAHISIGDQTDYADSAKGRFTISRDESKNTVYLQMNSLRPEDTALYYCRALSRIWPYDYWGQGTLVTVSSA
B6: T017000676 (bispecific antibody)
chain: DVQLVESGGGLVQAGGSLRLSCAASGITSKINDMGWYRQTPGNYREWVASITATGTTNYRDSVKGRFTISRDNAKSTVYLQMNSLKPEDTTVYYCNTFPPISNFWGQGTLVTVSSGGGGSGGGGSGGGGSGGGGSGGGGSGGGGSGGGGSEVQLVESGGGLVQAGGPLRLSCAASGRTFSSYVMGWFRQAPGKEREFVAAIYWSNGKTQYTDSVKGRFTISGDNAKNTVYLQMNSLNPEDTAVYYCVADKDETGFRTLPIAYDYWGQGTLVTVSSGGGGSGGGGSGGGGSGGGGSGGGGSGGGGSGGGGSEVQLVESGGGVVQPGGSLRLSCVASGYVHKINFYGWYRQAPGKEREKVAHISIGDQTDYADSAKGRFTISRDESKNTVYLQMNSLRPEDTALYYCRALSRIWPYDYWGQGTLVTVSSA
B7: A022600425 (protein)
chain: DVQLVESGGGVVQPGGSLRLSCVASGYVHKINFYGWYRQAPGKEREKVAHISIGDQTDYADSAKGRFTISRDESKNTVYLQMNSLRPEDTAAYYCRALSRIWPYDYWGQGTLVTVSSGGGGSEVQLVESGGGVVQPGGSLRLSCAASGSIFRSVFSSSTMEWYRQAPGKKRELVARIAPGEGTYYGALYADSVKGRFTISRDNAKNTVYLQMNSLRPEDTALYYCASGVAWGQGTLVTVSSGGGGSGGGGSGGGGSGGGGSEVQLVESGGGVVQPGGSLRLSCAASGFTFSSFAMTWVRRPPGKGLEWVATITNAGVTSYADSVKGRFTISRDNAKNTLYLQMNSLRPEDTALYICANARRTGPRAPTDIGSYRGQGTLVTVSSGGGGSGGGSEVQLVESGGGVVQPGGSLRLSCAASGFTFRSFGMSWVRQAPGKGPEWVSSISGSGSDTLYADSVKGRFTISRDNSKNTLYLQMNSLRPEDTALYYCTIGGSLSRSSQGTLVTVSSA
B8: A022600426 (protein)
chain: B7 chain with A315K
B9: A022600412 (protein)
chain: DVQLVESGGGVVQPGGSLRLSCVASGYVHKINFYGWYRQAPGKEREKVAHISIGDQTDYADSAKGRFTISRDESKNTVYLQMNSLRPEDTAAYYCRALSRIWPYDYWGQGTLVTVSSGGGGSEVQLVESGGGVVQPGGSLRLSCAASGFTFSSFAMTWVRRPPGKGLEWVATITNAGVTSYADSVKGRFTISRDNAKNTLYLQMNSLRPEDTALYICANARRTGPRAPTDIGSYRGQGTLVTVSSGGGGSGGGGSGGGGSGGGGSEVQLVESGGGVVQPGGSLRLSCAASGFTFRSFGMSWVRQAPGKGPEWVSSISGSGSDTLYADSVKGRFTISRDNSKNTLYLQMNSLRPEDTALYYCTIGGSLSRSSQGTLVTVSSA

target: Cynomolgus T cell receptor on cynomolgus primary T cells (cynomolgus monkey); assay: cell-based or functional assay

Binder | % lysis, MOLM-13, Cynomolgus T cell mediated killing [%] | Average EC50 (M), MOLM-13, Cynomolgus T cell mediated killing [M] | % lysis, KG-1a, Cynomolgus T cell mediated killing [%] | Average EC50 (M), KG-1a, Cynomolgus T cell mediated killing [M]
B1 | 54 | 5.1e-12 |  | 
B2 | 46 | 2.1e-11 |  | 
B3 | 40 | 7.2e-11 | 26 | 1.2e-11
B4 | 34 | 2e-11 | 30 | 8.1e-12
B5 | 31 | 6.9e-11 | 26 | 2.6e-11
B6 | 26 | 2e-11 | 28 | 1.4e-11

target: Human T cell receptor on human primary T cells (human) (UniProt P01848); assay: cell-based or functional assay
Sequence (P01848 whole entry, chain 1 of 2): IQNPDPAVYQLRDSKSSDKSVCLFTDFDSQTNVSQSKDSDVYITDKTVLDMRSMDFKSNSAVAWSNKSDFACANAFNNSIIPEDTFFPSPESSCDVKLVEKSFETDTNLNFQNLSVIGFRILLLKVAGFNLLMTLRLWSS
Sequence (P01850 whole entry, chain 2 of 2, further chain): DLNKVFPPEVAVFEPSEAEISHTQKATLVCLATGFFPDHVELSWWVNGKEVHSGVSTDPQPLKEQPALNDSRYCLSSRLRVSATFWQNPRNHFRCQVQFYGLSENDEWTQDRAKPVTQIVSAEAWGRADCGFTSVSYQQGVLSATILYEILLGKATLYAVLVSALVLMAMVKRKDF

Binder | % lysis, KG-1a, Human T cell mediated killing [%] | % lysis, MOLM-13, Human T cell mediated killing [%] | Average EC50 (M), KG-1a, Human T cell mediated killing [M] | Average EC50 (M), MOLM-13, Human T cell mediated killing [M] | IC50 (M), xCELLigence cell killing, Human T cell mediated killing, E:T 15:1 [M]
B1 | 65 | 20 | 1.5e-11 | 1.2e-11 | 
B2 | 21 | 14 | 1.5e-10 | 1.5e-10 | 
B3 | 51 | 25 | 7.8e-11 | 2.5e-11 | 4.7e-11
B4 | 52 | 26 | 7.4e-11 | 2.5e-11 | 9.4e-11
B5 | 46 | 23 | 9.2e-11 | 3.4e-11 | 5e-11
B6 | 41 | 25 | 8.2e-11 | 2.3e-11 | 1.1e-10

target: human GPC3 on cells (human) (UniProt P51654); assay: cell-based or functional assay

IC50 (M) BxPC-3, xCELLigence human TDC assay, E:T 15:1, 60 h [M] | IC50 (M) HepG2, xCELLigence human TDC assay, E:T 15:1, 60 h [M] | IC50 (M) Huh-7, xCELLigence human TDC assay, E:T 15:1, 60 h [M] | IC50 (M) NCI-H23, xCELLigence human TDC assay, E:T 15:1, 60 h [M] | IC50 (M) NCI-H661, xCELLigence human TDC assay, E:T 15:1, 60 h [M] | Binder
> 1e-07 | 1.11e-10 | 1.58e-10 | > 1e-07 | 2.59e-10 | B7
> 1e-07 | 1.25e-10 | 1.09e-10 | > 1e-07 | 2.64e-10 | B8
> 1e-07 | 3.82e-10 | 1.53e-09 |  | 6.18e-10 | B9
